One assay has as its target mouse PDGFRα (Mus musculus, UniProt P26618). Kind of assay: Binding to PDGFRα. Particulars: data not shown.
For assay [1], the system named is blood vessels and pericytes in BxPC3 tumor xenografts. Kind of assay: Immunohistochemistry of tumor sections (CD31 / α-SMA double staining). Particulars: BxPC3 tumors, Day 34 post treatment. In kind it is in vivo, mouse. The source says:
FIG. 5 represents results of immunohistochemical analysis of human xenografts after treatment with 1B3, DC101, or DC101 plus 1B3. On Day 34 (BxPC3 model, panel A to C) or 50 (NCI-H460 model, panel D to F) post treatment, six mice from each group were sacrificed and tumors were processed for IHC analysis. Tumors were sectioned and double staining for both blood vessels (anti-CD31) and pericyte/SMC coverage (α-SMA, panel B and E). Five digital immunofluorescence images of tumor periphery and tumor core from each section were acquired and quantified for total CD31^+ vessels (panel A and D), α-SMA^+ vessels (panel B and E), and the percentage of dual CD31^+/α-SMA^+ over total CD31^+ vessels (panel C and F). Two different quantitation methods were used to measure the degree of vascularity of individual tumor sections: vessel density (numbers of vessels/[…]) and percentage of vessel area (% vessel area over total tumor area). For statistic analysis, two-way ANOVA followed by Fisher's LSD method was used for multiple comparisons (Sigma Stat 3.1 Systat Software, Inc., Point Richmond, Calif.). *P<0.05 compared to the saline group. Open bars, tumor periphery; solid bars, tumor core. […]
Immunofluorescence images (at 200× magnification) were acquired using EZ-C1 2.20 software through a digital camera connected to a confocal microscope (Nikon Eclipse TE2000U). Computer assisted morphologic quantification was performed using Image Pro Plus software (MediaCybernatics, Silver Spring, Md.) and analyzed from each section.
Five digital images of tumor periphery and tumor core from each section were counted for total CD31^+ vessels, α-SMA^+ vessels, mature vessels (dual CD31^+ and α-SMA^+), and the percentage of dual CD31^+/α-SMA^+ vessels over total CD31^+ vessels. Two different quantitation methods were used to measure the degree of vascularity of individual tumor sections: vessel density (numbers of vessels/[…]) and percentage of vessel area (% vessel area over total tumor area). Computer assisted morphologic quantification was performed using Image Pro Plus software. […]

The test system of the next assay is human PDGFRβ. The assay is described as follows: Cross-reactivity binding test (soluble recombinant protein or cell-surface receptor on human tumor cell lines). Particulars: soluble recombinant protein or cell-surface-expressed receptor on human tumor cell lines.
The next assay has as its target T1, m5β (Mus musculus, UniProt P05622).
T1 sequence (P05622 32-531 limits assumed): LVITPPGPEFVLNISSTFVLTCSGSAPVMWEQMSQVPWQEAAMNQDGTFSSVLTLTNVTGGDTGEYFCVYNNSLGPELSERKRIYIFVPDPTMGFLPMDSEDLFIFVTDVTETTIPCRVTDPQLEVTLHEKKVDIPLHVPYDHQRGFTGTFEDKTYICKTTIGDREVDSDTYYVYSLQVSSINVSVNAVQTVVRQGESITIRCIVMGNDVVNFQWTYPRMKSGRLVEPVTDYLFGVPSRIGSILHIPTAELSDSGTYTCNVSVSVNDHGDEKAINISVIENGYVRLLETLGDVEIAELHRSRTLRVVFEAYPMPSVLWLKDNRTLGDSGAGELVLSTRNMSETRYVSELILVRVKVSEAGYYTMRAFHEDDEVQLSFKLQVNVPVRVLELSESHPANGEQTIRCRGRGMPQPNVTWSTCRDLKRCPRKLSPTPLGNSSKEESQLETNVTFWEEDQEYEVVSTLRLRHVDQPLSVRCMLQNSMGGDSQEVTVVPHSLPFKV
The assay is described as follows: Epitope mapping. It is filed as binding. Particulars: ✓ / X, key not given. Here is the method: (§1) 2C5 binds to domain 1 (D1) and domain 2 (D2) of PDGFRβ. Various chimeric constructs of PDGFRβ and PDGFRα were first made by domain swapping, starting from N-terminus to C-terminus with PDGFRβ domain(s) replacing PDGFRα domain(s). The PDGFRβ/α chimera were tested for the ability of 2C5 binding. Shorter versions of PDGFRβ, including D1D2, D2D3 and D1D2D3, were then made to confirm the 2C5 binding domains on PDGFRβ.

In assay [2] the test system is Akt and p44/42 MAP kinase in Caki-1 cells. Kind of assay: PDGF-BB-stimulated downstream signaling (Western blot). It is filed as cell-based, human. Here is the method: To study the downstream signaling, the cell lysate from the above treatment were resolved by a 4-12% NuPAGE Bis-Tris gel. Phosphorylated Akt and p44/42 mitogen-activated protein kinase (MAPK) were detected using an anti-phospho-Akt and an anti-phospho-p44/p42 MAPK and p44/p42 MAPK, respectively (eBioscience, San Diego, Calif.).
2C5 inhibits PDGF-BB-stimulated receptor phosphorylation and downstream signaling in a cell-based assay. The ability of 2C5 to block PDGFRβ phosphorylation was determined for human Caki-1 tumor cells (FIG. 7) and mouse NIH/3T3 and D122 cells lines (FIG. 8).
In general terms: In western blotting, separated proteins are transferred to a membrane and probed.

The test system of the next assay is 2β3α. The assay is described as follows: Epitope mapping, PDGFRβ/α chimera. It is filed as binding. Particulars: ✓ / X, key not given. Here is the method:
Various chimeric constructs of PDGFRβ and PDGFRα were first made by domain swapping, starting from N-terminus to C-terminus with PDGFRβ domain(s) replacing PDGFRα domain(s). The PDGFRβ/α chimera were tested for the ability of 2C5 binding. Shorter versions of PDGFRβ, including D1D2, D2D3 and D1D2D3, were then made to confirm the 2C5 binding domains on PDGFRβ.

In the next assay the test system is 3β2α. Kind of assay: Epitope mapping, PDGFRβ/α chimera. Particulars: ✓ / X, key not given. In kind it is binding. Here is the method:
as §1

The test system of another assay is 4β1α. The assay is described as follows: Epitope mapping, PDGFRβ/α chimera. Particulars: ✓ / X, key not given. It is filed as binding. Here is the method: as §1

Sequence of human PDGFRβ (P09619 33-532 limits assumed): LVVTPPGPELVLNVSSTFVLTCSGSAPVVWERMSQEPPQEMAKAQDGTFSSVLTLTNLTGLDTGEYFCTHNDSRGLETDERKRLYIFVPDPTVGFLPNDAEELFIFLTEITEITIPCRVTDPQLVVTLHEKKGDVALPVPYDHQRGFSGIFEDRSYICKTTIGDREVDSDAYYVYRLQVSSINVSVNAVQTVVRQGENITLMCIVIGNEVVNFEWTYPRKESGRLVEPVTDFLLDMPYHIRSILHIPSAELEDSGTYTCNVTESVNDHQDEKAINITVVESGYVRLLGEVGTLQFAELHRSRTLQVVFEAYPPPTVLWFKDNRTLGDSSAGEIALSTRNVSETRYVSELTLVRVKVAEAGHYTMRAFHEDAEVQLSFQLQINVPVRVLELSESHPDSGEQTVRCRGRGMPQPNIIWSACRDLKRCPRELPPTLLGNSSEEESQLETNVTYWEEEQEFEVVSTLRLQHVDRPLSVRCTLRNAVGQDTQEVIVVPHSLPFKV
Sequence of mouse PDGFRα (P26618 25-1089): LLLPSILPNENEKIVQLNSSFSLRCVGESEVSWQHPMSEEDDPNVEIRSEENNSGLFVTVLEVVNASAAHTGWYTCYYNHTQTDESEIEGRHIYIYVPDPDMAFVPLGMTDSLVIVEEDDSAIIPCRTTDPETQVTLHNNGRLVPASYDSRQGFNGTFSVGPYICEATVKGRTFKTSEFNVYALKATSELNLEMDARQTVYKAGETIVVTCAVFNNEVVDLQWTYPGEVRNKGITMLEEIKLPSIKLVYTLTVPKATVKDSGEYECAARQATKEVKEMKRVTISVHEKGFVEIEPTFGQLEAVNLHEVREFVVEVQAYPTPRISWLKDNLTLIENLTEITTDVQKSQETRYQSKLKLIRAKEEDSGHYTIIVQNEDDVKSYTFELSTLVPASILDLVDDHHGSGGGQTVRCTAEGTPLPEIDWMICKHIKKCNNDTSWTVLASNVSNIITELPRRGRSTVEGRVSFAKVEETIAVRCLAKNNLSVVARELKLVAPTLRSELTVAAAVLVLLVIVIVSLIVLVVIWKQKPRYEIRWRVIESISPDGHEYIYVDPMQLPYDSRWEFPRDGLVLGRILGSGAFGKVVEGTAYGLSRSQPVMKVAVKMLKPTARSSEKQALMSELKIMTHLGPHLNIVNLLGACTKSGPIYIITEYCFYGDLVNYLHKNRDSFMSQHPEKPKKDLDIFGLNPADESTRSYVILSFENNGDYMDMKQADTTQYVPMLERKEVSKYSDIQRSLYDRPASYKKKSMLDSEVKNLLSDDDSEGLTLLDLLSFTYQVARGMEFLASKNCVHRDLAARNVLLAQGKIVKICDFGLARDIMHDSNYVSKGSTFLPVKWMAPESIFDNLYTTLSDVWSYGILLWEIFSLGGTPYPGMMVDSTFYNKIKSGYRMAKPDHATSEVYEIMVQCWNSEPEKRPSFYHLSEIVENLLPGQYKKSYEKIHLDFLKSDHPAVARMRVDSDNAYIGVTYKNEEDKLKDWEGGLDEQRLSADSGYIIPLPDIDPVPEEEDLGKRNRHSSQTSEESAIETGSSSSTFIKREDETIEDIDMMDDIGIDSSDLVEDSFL

B1: 1B3: human anti-mouse PDGFRβ antibody from Fab phage display library, human κ/γ1 constant regions; SEQ ID NOS in Table 1 (antibody, listed as Homo sapiens, V domains shown)
VH: QVQLQESGGGLVKPGGSLRLSCAASGFTFSSYSMNWVRQAPGKGLEWVSSISSSSSYIYYADSVKGRFTISRDNSKNTLYLQMNSLRAEDTAVYYCAKGGRPLLVFDFWGQGTLVTVS
VL: EIVMTQSPGTLSLSPGERATLSCRASQSVSSSYLAWYQQKPGQAPRLLIYDASKRATGIPARFSGSGSGTDFTLTISTLESEDSAVYYCQQRGYWPPITFGQGTRLEIKR
modifications: human kappa/gamma1 constant regions
Turning to B1, in the assay with mouse PDGFRα, the “binding to mouse PDGFRα” value was “did not bind”. Also, in assay [1] (40 mg/kg three times a week), the “CD31^+ vessel density” value is listed as “no significant effect on overall tumor vessel density” and the “α-SMA^+ vessel density / α-SMA staining” value is reported as “reduced the α-SMA staining in tumor periphery”. For the same molecule, in assay [1] (versus saline), the “percentage of CD31/α-SMA double positive (mature) vessels over total CD31^+ vessels” value was “reduced percentage”. For the same molecule, the “cross-reactivity, binding to human PDGFRβ” value with human PDGFRβ was “No cross-reactivity was observed”.

B2: 2C5: PDGFRβ-specific human antibody binding both human and murine PDGFRβ; SEQ ID NOS in Table 1 (antibody, listed as Homo sapiens, V domains shown)
VH: QVQLVQSGAEVKKPGSSVKVSCKASGGTFSSYAISWVRQAPGQGLEWMGRIIPILGIANYAQKFQGRVTITADKSTSTAYMELSSLRSEDTAVYYCARDMGSRNYYYFYWGQGTLVTVSS
VL: EIVLTQSPATLSLSPGERATLSCRASQSVGRYLAWYQQKPGQAPRLLIYGASNRATGIPARFSGSGSGTDFTLTISSLEPEDFAVYYCQQRSNWPLTFGGGTKVEIK
For the molecule B2, the “binding to m5β” value with m5β is “✓”. Moreover, in assay [2], the “inhibition of PDGF-BB-stimulated phosphorylation of Akt and p44/42 MAP kinase” value is reported as “potently inhibited”. Further, the “binding to 2β3α” value with 2β3α was “✓”. Also, in the assay with 3β2α, the “binding to 3β2α” value is given as “✓”. In addition, in the assay on 4β1α, the “binding to 4β1α” value is listed as “✓”.

The record behind these values is patent publication US7740850B2, “PDGFRβ-specific antibodies” (ImClone, LLC, priority 2007, dated 2010).
